From US12649778
Where two headings read alike, the source gives them in different places.

What was measured:
[1] = molecular target: monoclonal antibody 65D3-1
[2] = molecular target: Peptide 1593 (…) (Mycobacterium tuberculosis); assay: SPR (Biacore 8K), antibody amine-coupled to CM5, peptide as analyte, 25 C
[3] = molecular target: Peptide 1593 (…) (Mycobacterium tuberculosis)
[4] = molecular target: Peptide 1593 (…) (Mycobacterium tuberculosis); assay: SPR (Biacore 8K), antibody immobilised, peptide as analyte
[5] = molecular target: Peptide 1593 (…) (Mycobacterium tuberculosis); assay: indirect ELISA, recombinant antibody on 1 ug/ml coated peptide
[6] = molecular target: Peptide 1593 (…) (Mycobacterium tuberculosis); remark: listed apart in the source
[7] = molecular target: Peptide 1593 (…) (Mycobacterium tuberculosis); assay: indirect ELISA, supernatant on 1 ug/ml coated peptide
[8] = molecular target: Peptide 2004 (…) (Mycobacterium tuberculosis)
[9] = molecular target: Peptide 1593 (…) (Mycobacterium tuberculosis); assay: SPR (Biacore), IgG amine-coupled, peptide as analyte

| Binder | OD450, supernatant 1:90 [7] | OD450, supernatant 1:270 [7] | OD450, supernatant 1:810 [7] | OD450, supernatant 1:2,430 [7] | OD450, supernatant undiluted [7] | Titer [7] | rank by relative ELISA signal across the dilution series (1 = highest) [8] | other results |
| --- | --- | --- | --- | --- | --- | --- | --- | --- |
| TDAATLAQEAGNFERC (modifications not checked) [Peptide 1593 (…)] | – | – | – | – | – | – | – | IC50 (read off the curve) [1]: 2 nM |
| monoclonal antibody 65D3-1 (antibody, V domains shown) VH: QSLEESGGRLVTPGGSLTLTCTVSGFSLSTHDISWVRQAPGKGLEWIGVIARRGSTYYASWAKGRFTISKTSTTVDLKITSPTIEDTATYFCAREEFDFWGQGTLVTVSS VL: AVLTQTASPVSAAVGGTVTISCQSSQSVYNNKELSWFQQKPGQPPKLLISYASTLASGVPSRFKGSGSGTQFTLTISDLECDDAATYYCLGGYASTIDMWAFGGGTEVVVK | – | – | – | – | – | – | – | Kd [2]: 1.72 nM; koff [3]: 0.000238 s⁻¹; kon [3]: 138000 M⁻¹ s⁻¹; Kd [4]: 1.72 nM |
| Antibody 67G8-2 (antibody, V domains shown) VH: QSVEESGGRLVTPGTPLTLTCTVSGFSLGNYDGHWVRQTPEKGLEWIGVIATIGDTYYASWAKGRFSISKTSATVELRITSPTTEDTATYFCVRGDSRTSNEIFNLWGQGTLVTVSS VL: AVLTQTPSPVSAAVGGTLTINCQSTRSVHNNICLSWYQQKPGQPPKLLIYSASTLASGVPSRFKGSGSGTQFTLAINDVQCGDAATYYCAGCFPSKSDMYGFGGGTEVVVK | 3.1 OD450 | 2.33 OD450 | 1.31 OD450 | 0.616 OD450 | 3.22 OD450 | > 2430 dilution 1:x | – | OD450 at 1.95 ng/ml (1:512,000) [5]: 0.876 OD450; OD450 at 3.90 ng/ml (1:256,000) [5]: 1.21 OD450; OD450 at 7.81 ng/ml (1:128,000) [5]: 1.66 OD450; OD450 at 15.62 ng/ml (1:64,000) [5]: 2.14 OD450; OD450 at 31.25 ng/ml (1:32,000) [5]: 2.45 OD450; OD450 at 62.50 ng/ml (1:16,000) [5]: 2.61 OD450; OD450 at 125.00 ng/ml (1:8,000) [5]: 2.76 OD450; OD450 at 250.00 ng/ml (1:4,000) [5]: 2.8 OD450; OD450 at 500.00 ng/ml (1:2,000) [5]: 2.83 OD450; OD450 at 1,000.00 ng/ml (1:1,000) [5]: 2.85 OD450; Titer [5]: > 512000 dilution 1:x; Kd [6]: 0.101 nM; koff [6]: 3.02e-05 s⁻¹; kon [6]: 299000 M⁻¹ s⁻¹ |
| Antibody 6D10-1 (antibody, V domains shown) VH: QSVEESGGRLVTPGTPLTLTCTVSGFSLSDVTMSWVRQAPGKGLEWIGIIGRRGRIWYANWAKGRFTISKTSPTVDLKIISPTSDDTATYFCARGAVSSDWNMYGMDLWGPGTLVTVSS VL: QVLTQTPSSVSAPVGGTVTINCQSSQSVYNNENLAWYQQKLGQPPKLLIYGASTLASGVSSRFEGSGSGTQFALTISGVQCDDAATYYCQGEFDCSSADCFAFGGGTEVVVK | – | – | – | – | – | – | 2 | – |
| Antibody 5B7-1 (antibody, V domains shown) VH: QSVEESGGRLVTPGTPLTLTCTVSGFSLSDVTISWVRQAPGKGLKWTGIIGRRGRIRYADWAKGRFTISKTSTTVDLKITSPTTDDTATYFCARAYVSSDWNIYGMDLWGPGTLVTVSS VL: QVLTQTASPVSAPVGGTVTINCQASQSVYNNKNLAWYQQKLGQPPKLLIYEASKLASGVSSRFEGSGSGTQFALTISGVQCDDAATYYCQGEFDCSSADCFVFGGGTEVVVK | – | – | – | – | – | – | 3 | – |
| Antibody 55H8-1 (antibody, V domains shown) VH: QSMEESGGRLVTPGTPLTLTCTVSGFSLSDHAMSWVRQAPGKGLEWIGIVGRRGRTYYASWAKGRFTISKTSTTVDLKITSPTIEDTATYFCARGYVSSDWNIYGMDLWGPGTLVTVSS VL: QVLTQTPSPVSAAVGGTVTINCQASQSVYNNKNLAWYQQKPGQPPKLLIYEASTLASGVSSRFKGSGSGTQFTLTISGVQCDDAATYYCQGEFDCSSADCFAFGGGTEVVVK | – | – | – | – | – | – | 4 | – |
| Antibody 10G3-1 (antibody, V domains shown) VH: QSVEESGGRLVTPGTPLTLTCTASGFSLSDDAMSWVRQAPGKGLEWIGIIGRRGKTWYANWAKGRFTISKTSTTVDLKITSPTTEDTATYFCARGYVSSDWNIYGMDLWGPGTLVTVSA VL: QVLTQTPSPVSAAVGGTVTINCQASQSVYNNKNLAWYQQKSGQPPKLLIYEASKLASGVPSRFKGSGSGTQFTLTISGVQCDDAATYYCQGEFSCSSADCFTFGGGTEVVVK | – | – | – | – | – | – | 5 | – |
| Antibody 3E9-1 (antibody, V domains shown) VH: QSLEESGGRLVTPGGSLTLTCTVSGIDLSSNAMGWVRQAPGEGLEWIGSIYASGNTYYASWAKGRFAISKTSTTVDLKMTSLTAADTATYFCARLFNIWGPGTLVTVSS VL: ADIVLTQTPASVSSVVGGTVTINCQASQSVFDNKNLSWFQQKPGQPPKQLIYGASTLDSGVPSRFKGSGSGTQFTLTISDMQCDDAATYYCGGRDSGNIYDFGGGTEVVVK | – | – | – | – | – | – | 7 | – |
| Antibody 76H12-1 (antibody, V domains shown) VH: QELKESGGRLVTPGGSLTLSCTASGIDLSGSAMGWVRQAPGQGLEWIGSIYVSGNTYYASWAKGRFAISRTSTTVDLKMTSLTAADTATYFCARLLNIWGPGTLVTVSS VL: ADIVLTQTPSPVSIAVGGTVTINCQASQSVYDNKNLAWFQQKPGQPPKQLIYGASTLASGVPSRFKGSGSGTQFTLTISGMQCDDAATYYCGGRDSDNIYDFGGGTEVVVK | – | – | – | – | – | – | 8 | – |
| Antibody 4G6-1 (antibody, V domains shown) VH: QSLEESGGRLVTPGTPLTLTCTVSGIDLSSNAMGWVRQAPGEGLQWIGSIYSSGNTYYASWARGRFAISRTSTTVDLKMTSLTAADTATYFCARLFNIWGPGTLVTVSS VL: ADIVVTQTPASVSADVGGTVTINCQASQSVYDNKNLAWFQQKPGQPPKQLIYGASTVASGVPSRFKGSGSGTQFTLTISDVQCDDAATYYCGGRDNDNIYDFGGGTEVVVK | – | – | – | – | – | – | 10 | – |
| Antibody 21F10-1 (antibody, V domains shown) VH: QSVEESGGRLVTPGTPLTLTCTVSGIDLSSNAVGWVRQAPGEGLEWIGSIYSSGNSYYASWAKGRFAISRTSTTVDLKMTRLTAADTATYFCARLFNIWGPGTLVTVS VL: ADIVLTQTPASVSSVVGGTVAINCQASQSVYDNKNLSWFQQKPGQTPKQLIYGASTLASGVPSRFKGSGSGTQFTLTISGVQCDDAATYYCGGRDDDNIYDFGGGTEVVVK | – | – | – | – | – | – | 11 | – |
| 65D3 wild-type recombinant IgG (VH + VL) (antibody, V domains shown) VH: QSLEESGGRLVTPGGSLTLTCTVSGFSLSTHDISWVRQAPGKGLEWIGVIARRGSTYYASWAKGRFTISKTSTTVDLKITSPTIEDTATYFCAREEFDFWGQGTLVTVSS VL: AVLTQTASPVSAAVGGTVTISCQSSQSVYNNKELSWFQQKPGQPPKLLISYASTLASGVPSRFKGSGSGTQFTLTISDLECDDAATYYCLGGYASTIDMWAFGGGTEVVVK | – | – | – | – | – | – | – | Kd [9]: 0.755 nM; koff [9]: 0.00017 s⁻¹; kon [9]: 225000 M⁻¹ s⁻¹ |
| Antibody 91B4-1 (antibody, V domains shown) VH: QSLEESGGRLVSPGGSLTLTCTVSGIDLSRFGVSWVRQAPGKGLEWTGYIHTDGNVYYASWAKGRFTISKTSTTVDLKMTSLTTEDTATYFCARGGYAADLWGQAALVTVSS VL: DPMLTQTPSSVSAAVGGTVTISCQSSESVYKNYLAWYQQKLGQPPKLLIGATSTLVSGVPSRFKGSGSRTQFSLTISDLECDDAATYYCVGGYTGKNVFGGGTEVVVK | 3.04 OD450 | 2.27 OD450 | 1.3 OD450 | 0.618 OD450 | 3.12 OD450 | > 2430 dilution 1:x | – | – |
| Antibody 101G10-2 (antibody, V domains shown) VH: QSVEESGGRLVTPGTPLTLTCTVSGFSLSSYDMTWVRQAPGKGLEYIGVISYGGSAYYASWAKGRFTISKTSTTVDLKITSPTTEDTATYFCARGDSDGSSELFNLWGQGTLVTVSS VL: AVLTQTPSPVSAPVGGTVSINCQSSKSVYNNNCLSWYQQKPGQPPNLLIYGASTLASGVPSRFKGSGSGTQFTLTINDVQCDDAATYYCAGCFASTNDMYGFGGGSEVVVK | 3.22 OD450 | 3.21 OD450 | 3.1 OD450 | 2.41 OD450 | 3.23 OD450 | > 2430 dilution 1:x | – | – |
| Antibody 125D9-1 (antibody, V domains shown) VH: QPVEESGGRLVTPGTPLTLTCTVSGFSLSSYDMTWVRQAPGKGLEYIGVVAYGGATYYASWAKGRFTISKTSTTVDLKITSPTTEDTATYFCARGDSDGSSELFNLWGQGTLVTVSS VL: AVLTQTPSPVSAAVGGTVTINCQSSKSVYNNNCLSWYQQKQGQPPKLLIYQASTPASGVPSRFKGSGSGTQFTLTINDVQCDDAATYYCAGCFASTSDMYGFGGGTGVVVK | 3.37 OD450 | 3.31 OD450 | 3.27 OD450 | 2.85 OD450 | 3.2 OD450 | > 2430 dilution 1:x | – | – |
| Antibody 135A6-1 (antibody, V domains shown) VH: QSVEESGGRLVTPGTPLTLTCTVSGFSLGNYDISWVRQAPGKGLEWIGVIATVGDTYYASWAKGRFTISKTSATVDLKITSPTTEDTATYFCVRGDSPSTNEIFGLWGQGTLVTVSS VL: AVLTQTPSPVSAAVGGTLTINCQSSRTVYNNICLSWYQQKLGQPPKLLIYGASTLTSGVPSRFRGSGSGTQFTLTINDVQCGDAATYYCAGCFPSTSDMYGFGGGTEVVVK | 3.46 OD450 | 3.22 OD450 | 2.68 OD450 | 1.69 OD450 | 3.27 OD450 | > 2430 dilution 1:x | – | – |
